Laboratory results as given in patent publication US20220356245A1 (FORTY SEVEN, published 2022).

T1: mouse CD47 (mCD47) expressed on CHO cells (mouse, UniProt Q61735 19-303)
T1 construct: whole, on cells; also called CHO-mCD47
T1 sequence (looked up): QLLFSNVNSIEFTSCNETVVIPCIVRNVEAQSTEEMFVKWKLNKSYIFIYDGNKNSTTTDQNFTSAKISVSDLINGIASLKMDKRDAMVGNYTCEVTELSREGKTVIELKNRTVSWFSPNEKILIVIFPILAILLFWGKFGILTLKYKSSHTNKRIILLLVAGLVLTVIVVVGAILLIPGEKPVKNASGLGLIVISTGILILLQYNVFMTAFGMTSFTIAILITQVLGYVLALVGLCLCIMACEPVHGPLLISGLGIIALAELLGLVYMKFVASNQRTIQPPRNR


Key:
[1] = target: T2, hu-sCD47-6His; extracellular domain of human CD47 antigen with 6His-tag (human); assay: SPR Biacore T200, antibody captured, hCD47-his analyte;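 further: antibodies captured on anti-IgG (Fc) CM5 chip, five sequential 10 min antigen injections at rising concentrations, reference flow cell and antigen-free cycle as controls, 1:1 model fit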
T2 construct: also called hCD47-his; soluble hCD47
From the text: (§1) An anti-human or anti-mouse IgG (Fc) was first immobilized on the surface of Serie S Sensor Chips CM5 using the human or mouse antibody capture and amine coupling kits, following the manufacturer's instructions (GE Healthcare). […] The mouse, chimerized or humanized antibodies to be tested were then captured onto the appropriate anti-mouse or anti-human IgG surface in all flow cells except flow cell 1 used as control, at concentration and contact time adjusted so that ˜300 RU were captured on the surface. Binding kinetics were studied by passing increasing concentrations of hCD47-his in a series of five 10 minute injections through all flow cells at a rate of 30 μL/min. […] Following the final injection, buffer was passed across each flow cell for 60 minutes (mouse) or 30 minutes (human) to monitor the dissociation of bound antigen. Regeneration of the binding surface was carried out at the end of the cycle by flowing 3 M MgCl₂ for 60 s at 20 μL/min followed by 10 mM glycine-HCl, pH 1.7 for 180 s at 10 μl/min (for human) or by flowing 10 mM glycine-HCl, ph 1.7 for 360 s at 10 μl/min (for mouse). A second cycle with the same antibodies but no antigen was run as a control. Kinetics binding constants were estimated by non-linear fitting of the sensogram data to the 1:1 binding model provided by the Biacore T200 evaluation software.

[2] = target: T2, hu-sCD47-6His; extracellular domain of …; assay: SPR Biacore;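 further: antibodies captured on anti-IgG CM5 chip, soluble His-tagged human CD47 flowed over at rising concentrations, five 10 min injections, flow cell 1 as reference, 1:1 model fit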
From the text: as §1

[3] = target: T3, human CD47 (hCD47) expressed on cells (human, UniProt Q08722 19-323); assay: flow cytometry, Raji cells
T3 construct: Transfected CHO cells or endogenous CD47 of human cells; also called CHO-hCD47; CD47 on Raji cells

[4] = target: T2, hu-sCD47-6His; extracellular domain of …; assay: SPR Biacore; head read as x 10^-4;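 on Kd: antibodies captured on anti-IgG CM5 chip, soluble His-tagged human CD47 flowed over at rising concentrations, five 10 min injections, flow cell 1 as reference, 1:1 model fit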;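 on kon: antibodies captured on anti-IgG CM5 chip, soluble His-tagged human CD47 flowed over at rising concentrations, five 10 min injections, flow cell 1 as reference, 1:1 model fit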
[5] = target: T1, mouse CD47 (mCD47) expressed on CHO …; assay: flow cytometry, CHO-mCD47 cells (not shown)
[6] = target: T3, human CD47 (hCD47) expressed on cells; assay: flow cytometry, Raji cells, competition with hSIRPα

| Kd [1] [nM] | koff [1] [s⁻¹] | kon [1] [M⁻¹ s⁻¹] | Kd [2] [nM] | kon [2] [M⁻¹ s⁻¹] | EC50 [3] [µg/mL] | koff [4] [s⁻¹] | binding result [5] | IC50 [6] [µg/mL] | Binder |
| --- | --- | --- | --- | --- | --- | --- | --- | --- | --- |
| 5.14 | 6.59e-05 | 12900 | – | – | – | – | – | – | B6H12 (mouse IgG1, Abcam) (antibody, V domains shown) VH: EVQLVESGGDLVKPGGSLKLSCAASGFTFSGYGMSWVRQTPDKRLEWVATITSGGTYTYYPDSVKGRFTISRDNAKNTLYLQIDSLKSEDTAIYFCARSLAGNAMDYWGQGTSVTVSS VL: DIVMTQSPATLSVTPGDRVSLSCRASQTISDYLHWYQQKSHESPRLLIKFASQSISGIPSRFSGSGSGSDFTLSINSVEPEDVGVYYCQNGHGFPRTFGGGTKLEIK |
| – | – | – | 3.65 | 189000 | 0.184 | 0.000628 | no binding | 0.079 | h20-VH2-VL3 (candidate 20.8) (antibody, human IgG4 S228P, kappa, V domains shown, hIgG4-S228P/kappa; also called h20-H2-L3) VH: QVQLVQSGAEVKKPGASVKVSCKASGYSFTDYYINWVRQAPGQGLEWMGRIYPGIGNTYYNKKFKGRVTITRDTSASTAYMELSSLRSEDTAVYYCARGHYGRGMDYWGQGTLVTVSS VL: EIVLTQSPDSLAVSLGERATINCKSSQSLLNSIDQKNYLAWYQQKAGQSPKLLIYFASTKESGVPDRFSGSGSGTDFTLTIDSLQAEDVAVYYCQQHYSTPWTFGGGTKVEIKR |
| – | – | – | 3.53 | 198000 | 0.206 | 0.000595 | no binding | 0.111 | h20-VH1-VL5 (candidate 20.5) (antibody, human IgG4 S228P, kappa, V domains shown, hIgG4-S228P/kappa; also called h20-H1-L5) VH: QVQLLESGAVLARPGTSVKISCKASGYSFTDYYINWVKQRPGQGLEWIGRIYPGIGNTYYNKKFKGRAKLTAATSASIAYLEFSSLTNEDSAVYYCARGHYGRGMDYWGQGTLVTVSS VL: DIVMTQSPDSLAVSLGERATINCKSSQSLLNSIDQKNYLAWYQQKPGQPPKLLIYFASTKESGVPDRFSGSGSGTDFTLTISGLQAEDVAVYFCQQHYSTPWTFGGGTKVEIRR |
| – | – | – | 4.37 | 180000 | 0.164 | 0.000733 | no binding | 0.142 | h20-VH4-VL3 (candidate 20.18) (antibody, human IgG4 S228P, kappa, V domains shown, hIgG4-S228P/kappa; also called h20-H4-L3) VH: QVQLVQSGAEVKKPGSSVKVSCKASGYSFTDYYINWVRQAPGQGLEWMGRIYPGIGNTYYNKKFKGRVTITADKSTSTAYMELSSLRSEDTAVYYCARGHYGRGMDYWGQGTTVTVSS VL: EIVLTQSPDSLAVSLGERATINCKSSQSLLNSIDQKNYLAWYQQKAGQSPKLLIYFASTKESGVPDRFSGSGSGTDFTLTIDSLQAEDVAVYYCQQHYSTPWTFGGGTKVEIKR |
| – | – | – | 2.36 | 242000 | 0.143 | 0.000528 | no binding | 0.113 | h20-VH3-VL5 (candidate 20.15) (antibody, human IgG4 S228P, kappa, V domains shown, hIgG4-S228P/kappa; also called h20-H3-L5) VH: QVQLVQSGAEVKKPGASVKVSCKASGYSFTDYYINWVRQAPGQGLEWMGRIYPGIGNTYYNKKFKGRVTVTRDTSISTAHMELSSLRSDDTAVYYCARGHYGRGMDYWGQGTAVTVSS VL: DIVMTQSPDSLAVSLGERATINCKSSQSLLNSIDQKNYLAWYQQKPGQPPKLLIYFASTKESGVPDRFSGSGSGTDFTLTISGLQAEDVAVYFCQQHYSTPWTFGGGTKVEIRR |
| – | – | – | 3.02 | 216000 | 0.143 | 0.000581 | no binding | 0.135 | h20-VH3-VL4 (candidate 20.14) (antibody, human IgG4 S228P, kappa, V domains shown, hIgG4-S228P/kappa; also called h20-H3-L4) VH: QVQLVQSGAEVKKPGASVKVSCKASGYSFTDYYINWVRQAPGQGLEWMGRIYPGIGNTYYNKKFKGRVTVTRDTSISTAHMELSSLRSDDTAVYYCARGHYGRGMDYWGQGTAVTVSS VL: DIVMTQSPDSLAVSLGERATINCKSSQSLLNSIDQKNYLAWYQQKPGQPPKLLIYFASTKESGVPDRFSGSGSGTDFTLTISSLQAEDVAVYFCQQHYSTPWTFGGGAKVEIKR |
| – | – | – | 11 | 103000 | 0.177 | 0.00102 | no binding | 0.133 | h20-VH5-VL4 (candidate 20.24) (antibody, human IgG4 S228P, kappa, V domains shown, hIgG4-S228P/kappa; also called h20-H5-L4) VH: QVQLVQSGAEVKKPGASVKVSCKASGYSFTDYYINWVRQAPGQGLEWMGRIYPGIGNTYYNKKFKGRVTMTRYTSISTAYMELSRLRSDDTAVYFCARGHYGRGMDYWGQGTTVTVSS VL: DIVMTQSPDSLAVSLGERATINCKSSQSLLNSIDQKNYLAWYQQKPGQPPKLLIYFASTKESGVPDRFSGSGSGTDFTLTISSLQAEDVAVYFCQQHYSTPWTFGGGAKVEIKR |
| – | – | – | 9.69 | 126000 | 0.159 | 0.00109 | no binding | 0.112 | h20-VH5-VL5 (candidate 20.25) (antibody, human IgG4 S228P, kappa, V domains shown, hIgG4-S228P/kappa; also called h20-H5-L5) VH: QVQLVQSGAEVKKPGASVKVSCKASGYSFTDYYINWVRQAPGQGLEWMGRIYPGIGNTYYNKKFKGRVTMTRYTSISTAYMELSRLRSDDTAVYFCARGHYGRGMDYWGQGTTVTVSS VL: DIVMTQSPDSLAVSLGERATINCKSSQSLLNSIDQKNYLAWYQQKPGQPPKLLIYFASTKESGVPDRFSGSGSGTDFTLTISGLQAEDVAVYFCQQHYSTPWTFGGGTKVEIRR |
| – | – | – | 9.93 | 104000 | 0.19 | 0.000841 | no binding | 0.169 | h20-VH5-VL3 (candidate 20.23) (antibody, human IgG4 S228P, kappa, V domains shown, hIgG4-S228P/kappa; also called h20-H5-L3) VH: QVQLVQSGAEVKKPGASVKVSCKASGYSFTDYYINWVRQAPGQGLEWMGRIYPGIGNTYYNKKFKGRVTMTRYTSISTAYMELSRLRSDDTAVYFCARGHYGRGMDYWGQGTTVTVSS VL: EIVLTQSPDSLAVSLGERATINCKSSQSLLNSIDQKNYLAWYQQKAGQSPKLLIYFASTKESGVPDRFSGSGSGTDFTLTIDSLQAEDVAVYYCQQHYSTPWTFGGGTKVEIKR |
| – | – | – | 7.33 | 131000 | 0.184 | 0.000839 | no binding | 0.228 | h20-VH1-VL3 (candidate 20.3) (antibody, human IgG4 S228P, kappa, V domains shown, hIgG4-S228P/kappa; also called h20-H1-L3) VH: QVQLLESGAVLARPGTSVKISCKASGYSFTDYYINWVKQRPGQGLEWIGRIYPGIGNTYYNKKFKGRAKLTAATSASIAYLEFSSLTNEDSAVYYCARGHYGRGMDYWGQGTLVTVSS VL: EIVLTQSPDSLAVSLGERATINCKSSQSLLNSIDQKNYLAWYQQKAGQSPKLLIYFASTKESGVPDRFSGSGSGTDFTLTIDSLQAEDVAVYYCQQHYSTPWTFGGGTKVEIKR |
| – | – | – | 7.58 | 126000 | 0.248 | 0.000772 | no binding | 0.261 | h20-VH1-VL4 (candidate 20.4) (antibody, human IgG4 S228P, kappa, V domains shown, hIgG4-S228P/kappa; also called h20-H1-L4) VH: QVQLLESGAVLARPGTSVKISCKASGYSFTDYYINWVKQRPGQGLEWIGRIYPGIGNTYYNKKFKGRAKLTAATSASIAYLEFSSLTNEDSAVYYCARGHYGRGMDYWGQGTLVTVSS VL: DIVMTQSPDSLAVSLGERATINCKSSQSLLNSIDQKNYLAWYQQKPGQPPKLLIYFASTKESGVPDRFSGSGSGTDFTLTISSLQAEDVAVYFCQQHYSTPWTFGGGAKVEIKR |
| – | – | – | 3.34 | 219000 | 0.173 | 0.000632 | no binding | 0.123 | h20-VH2-VL4 (candidate 20.9) (antibody, human IgG4 S228P, kappa, V domains shown, hIgG4-S228P/kappa; also called h20-H2-L4) VH: QVQLVQSGAEVKKPGASVKVSCKASGYSFTDYYINWVRQAPGQGLEWMGRIYPGIGNTYYNKKFKGRVTITRDTSASTAYMELSSLRSEDTAVYYCARGHYGRGMDYWGQGTLVTVSS VL: DIVMTQSPDSLAVSLGERATINCKSSQSLLNSIDQKNYLAWYQQKPGQPPKLLIYFASTKESGVPDRFSGSGSGTDFTLTISSLQAEDVAVYFCQQHYSTPWTFGGGAKVEIKR |
